In patent US20100040616A1 (published 2010):

T1: recombinant human CD127 extracellular domain (CD127 ECD) (human) (UniProt P16871)
T1 sequence: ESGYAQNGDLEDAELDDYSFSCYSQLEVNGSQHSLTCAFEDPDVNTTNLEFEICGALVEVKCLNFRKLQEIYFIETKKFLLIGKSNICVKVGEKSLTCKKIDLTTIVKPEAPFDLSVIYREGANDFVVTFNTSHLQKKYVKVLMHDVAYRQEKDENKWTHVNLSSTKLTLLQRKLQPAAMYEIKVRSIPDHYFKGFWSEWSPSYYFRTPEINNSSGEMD

T2: human CD127 expressed on cells (CD127-transfected CHO cells; PBMC and CD4+ T cells in functional assays) (human, UniProt P16871 21-459)
T2 construct: The construct transfected into CHO is not described further; also called CHO-CD127; IL-7Rα expressed on CHO
T2 chain: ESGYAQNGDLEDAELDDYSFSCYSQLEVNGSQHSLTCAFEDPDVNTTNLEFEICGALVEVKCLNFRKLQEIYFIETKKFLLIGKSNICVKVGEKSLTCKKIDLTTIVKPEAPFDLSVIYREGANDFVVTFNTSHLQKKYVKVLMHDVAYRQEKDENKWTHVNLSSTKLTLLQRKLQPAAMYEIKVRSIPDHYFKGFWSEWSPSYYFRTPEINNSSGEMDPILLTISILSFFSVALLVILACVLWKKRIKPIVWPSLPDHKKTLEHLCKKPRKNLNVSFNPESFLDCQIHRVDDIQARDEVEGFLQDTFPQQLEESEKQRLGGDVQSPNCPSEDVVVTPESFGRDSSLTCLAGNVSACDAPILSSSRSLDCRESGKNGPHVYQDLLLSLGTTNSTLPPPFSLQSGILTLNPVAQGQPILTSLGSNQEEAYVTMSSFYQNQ


Legend:
[1] = biological target: T1, recombinant human CD127 extracellular domain (CD127 ECD) (human); test: affinity for the IL-7Rα ECD (profile summary; SPR)
[2] = biological target: T1, recombinant human CD127 extracellular domain (CD127 ECD) (human); test: SPR (Biacore T100, 25 °C), antibody captured on rabbit anti-mouse IgG, CD127 ECD as analyte
[3] = biological target: T1, recombinant human CD127 extracellular domain (CD127 ECD) (human); test: blocking of IL-7/IL-7Rα binding; competitor IL-7; method not given
[4] = biological target: T2, human CD127 expressed on cells …; test: Flow cytometry cross-competition on CHO-CD127 cells: unlabelled antibody titrated against fluorescence-labelled BD anti-CD127 antibody (#552853)
Method: CHO-CD127 cells were prepared and washed by cold DPBS for 3 times. […] The antibody mixtures were then incubated with the CHO-CD127 cells for 30 min at 4° C. […] (FIG. 15).

[5] = biological target: T1, recombinant human CD127 extracellular domain (CD127 ECD) (human); test: ELISA: recombinant human CD127 ECD coated at 5 ug/ml, 9B7 hybridoma material titrated, HRP goat anti-mouse IgG detection
[6] = biological target: T1, recombinant human CD127 extracellular domain (CD127 ECD) (human); test: SPR (Biacore T100), CD127 ECD amine-coupled on CM5, antibody (supernatant material) as analyte

Kd [1]	koff [1]	Kd [2]	koff [2]	kon [2]	IC50 [3]	IC50 (read off the curve) [4]	EC50 (read off the curve) [5]	Kd [6]	Binder
7.99 nM	0.000334 s⁻¹	7.74 nM	0.000146 s⁻¹	18900 M⁻¹ s⁻¹	1.92 µg/mL	–	–	–	mAb 6A3 (murine anti-human CD127 monoclonal antibody) (antibody, mouse IgG1, V domains shown) VH: DVQLQESGPGLVKPSQSLSLTCTVTGYSITTDYAWNWIRQFPGNKLEWMGYIFYSGSTTYTPSLKSRISITRDTSKNQFFLQLNSVTTEDTATYYCARGGYDVNYFDYWGQGTTLTVSS VL: DIQMTQSPASQSASLGESVTITCLASQTIGAWLAWYQQKPGKSPQLLIYAATRLADGVPSRFSGSGSGTKFSFKISSLQAEDFVSYYCQQFFSTPWTFGGGTKLEIK
–	–	24.4 nM	0.000436 s⁻¹	17900 M⁻¹ s⁻¹	–	~70 µg/mL	–	–	mAb 6C5 (murine anti-human CD127 monoclonal antibody) (antibody, mouse IgG1, V domains shown, also called Antibody 6C5) VH: EVKLLESGGGLVQPGGSLKLSCAASGFAFSAYWMSWVRQAPGKGLEWIGEINPDSSTINCTPSLKDKFIISRDNAKNTLSLQMNKVRSEDTALYYCARRLRPFWYFDVWGAGTTVTVSS VL: DVLMTQTPLSLPVSLGDQASISCRSSQSIVQSNGNTYLEWYLQKPGQSPKLLIYKVSNRFSGVPDRFSGSGSGTDFTLKISRVEAEDLGVYYCFQGSHVPRTFGGGTKLEIK
–	–	–	–	–	–	–	0.6 µg/mL	0.556 nM	mAb 9B7 (murine anti-human CD127 monoclonal antibody) (antibody, IgG1, V domains shown) VH: QVQLQESGPGLVAPSQSLSITCTVSGFSLSRYNVHWVRQPPGKGLEWLGMIWDGGSTDYNSALKSRLSITKDNSKSQVFLKMNSLQTDDTAMYYCARNRYESGMDYWGQGTTVTVSS VL: DIVMTQTPSSLTVTAGEKVTMSCKSSQSLLNSGNRKNYLTWYQQKPGQSPKLLIYWASTRESGVPDRFTGSGSGTDFTLIISSVQAEDLAVYYCQNDYTYPFTFGSGTKLEIKR
–	–	3.44 nM	0.000251 s⁻¹	–	1.79 µg/mL	–	–	–	mAb 1A11 (murine anti-human CD127 monoclonal antibody) (antibody, mouse IgG1, V domains shown) VH: EVQLQQSGPELLKPGASMKISCKASGYSFTGYTMNWVKQSHGKNLEWIGLINPYNGVTSYNQKFKGKATLTVAKSSSTAYMELLSLTSEDSAVYYCARGDGNYWYFDVWGAGTTVTVSS VL: EIVLTQSPAITAASLGQKVTITCSASSSVTYMHWYQQKSGTSPKPWIYEISKLASGVPVRFSGSGSGTSYSLTISSMEAEDAAIYYCQEWNYPYTFGGGTKLEIK
–	–	15.3 nM	0.000875 s⁻¹	–	2.29 µg/mL	–	–	–	mAb GR34 (reverse engineered clone of R34.34) (antibody, mouse IgG1, V domains shown) VH: EVQLQQSGPELVKPGASMKISCKASGYSFTGYTMNWVKQSHGKNLEWIGLINPYSGITSYNQNFKGKATLTVDKSSSTAYMELLNLTSEDSAVYYCARGDGNYWYFDVWGAGTTVTVSS VL: EIILTQSPAITAASLGQKVTITCSASSSVSYMHWYQQKSGTSPKPWIYEISKLASGVPARFSGSGSGTSYSLTISSMEAEDAAIYYCQYWNYPYTFGGGTKLEIK
